Patent publication US20220153796A1 (IMMATICS BIOTECHNOLOGIES, published 2022)

Target: HLA-A*01 (human)
Assay: UV peptide exchange ELISA

Binder	peptide exchange yield
ECDMAFHIY	> 75%
ATDLVVLDRY	> 75%
NTDNNLAVY	> 75%
ASEQQALHTVQY	> 75%

Continued, values first:

peptide exchange yield	Binder
10 to 20%	VVADTKMIEY
10 to 20%	WMFFVINY
> 75%	VTDGSLYEGVAY
> 75%	VVDSVGGYLY

Target: HLA-A*02 (human)
Assay: UV peptide exchange ELISA

peptide exchange yield	Binder
10 to 20%	ALCLLLHLL
20 to 50%	LMAFFLAVV

Target: HLA-A*03 (human)
Assay: UV peptide exchange ELISA
Text: (§1) Candidate peptides for T cell based therapies according to the present invention were further tested for their MHC binding capacity (affinity). The individual peptide-MHC complexes were produced by UV-ligand exchange, where a UV-sensitive peptide is cleaved upon UV-irradiation, and exchanged with the peptide of interest as analyzed. Only peptide candidates that can effectively bind and stabilize the peptide-receptive MHC molecules prevent dissociation of the MHC complexes. To determine the yield of the exchange reaction, an ELISA was performed based on the detection of the light chain (β2m) of stabilized MHC complexes. The assay was performed as generally described in Rodenko et al. (Rodenko et al., 2006).
(§2) 96 well MAXISorp plates (NUNC) were coated over night with 2 ug/ml streptavidin in PBS at room temperature, washed 4× and blocked for 1 h at 37° C. in 2% BSA containing blocking buffer. […] Peptide-MHC monomers of the UV-exchange reaction were diluted 100-fold in blocking buffer. Samples were incubated for 1 h at 37° C., washed four times, incubated with 2 ug/ml HRP conjugated anti-β2m for 1h at 37° C., washed again and detected with TMB solution that is stopped with […]. Absorption was measured at 450 nm.

peptide exchange yield	Binder
50 to 75%	KLYAWELAF
50 to 75%	KTLVAELLILK

Target: HLA-B*07 (human)
Assay: UV peptide exchange ELISA
Text: as §1, §2

peptide exchange yield	Binder
10 to 20%	SAYPQRLEI
